Experiments:
[1] = target: human β2-adrenergic receptor (ADRB2) in nanodiscs, GRK2-phosphorylated, DNA barcoded (human) (UniProt P07550); test: polony co-localization, β-arr2 titration on isoproterenol-saturated phosphorylated ADRB2, one-site-specific fit
[2] = target: human β2-adrenergic receptor (ADRB2) in nanodiscs, GRK2-phosphorylated, DNA barcoded (human) (UniProt P07550); test: polony co-localization at varied β-arr2 concentrations; reference is ADRB2 without GRK2-mediated phosphorylation

Kd [1]: 0.95 nM
fold increase of the average co-localization ratios after the phosphorylation [2]: 3 to 11 fold
Substance: β-arr2-TolA-HaloTag (β-arrestin-2, DNA barcoded) (from UniProt P19934 131-225)
